Read-outs that look alike come from different tables or passages of the source. Square brackets hold non-standard residues; d marks the D form. Ends that are not written are not given here. Peptide text beside a SMILES is read from it. pT = C[C@@H](OP(=O)(O)O)[C@H](N)C(=O)O; pS = N[C@@H](COP(=O)(O)O)C(=O)O
How the values were obtained:
[1] = molecular target: Cdc4 (Saccharomyces cerevisiae) (UniProt P07834); settings: cited from earlier work
[2] = molecular target: Cdc4 (Saccharomyces cerevisiae) (UniProt P07834); settings: cited from earlier work; remark: listed apart in the source
[3] = molecular target: Cdc4-Skp1 (Saccharomyces cerevisiae) (UniProt P07834); test: intrinsic Trp fluorescence; settings: cited from earlier work
Chain of Cdc4-Skp1 (Saccharomyces cerevisiae) (P07834 whole entry, chain 1 of 2): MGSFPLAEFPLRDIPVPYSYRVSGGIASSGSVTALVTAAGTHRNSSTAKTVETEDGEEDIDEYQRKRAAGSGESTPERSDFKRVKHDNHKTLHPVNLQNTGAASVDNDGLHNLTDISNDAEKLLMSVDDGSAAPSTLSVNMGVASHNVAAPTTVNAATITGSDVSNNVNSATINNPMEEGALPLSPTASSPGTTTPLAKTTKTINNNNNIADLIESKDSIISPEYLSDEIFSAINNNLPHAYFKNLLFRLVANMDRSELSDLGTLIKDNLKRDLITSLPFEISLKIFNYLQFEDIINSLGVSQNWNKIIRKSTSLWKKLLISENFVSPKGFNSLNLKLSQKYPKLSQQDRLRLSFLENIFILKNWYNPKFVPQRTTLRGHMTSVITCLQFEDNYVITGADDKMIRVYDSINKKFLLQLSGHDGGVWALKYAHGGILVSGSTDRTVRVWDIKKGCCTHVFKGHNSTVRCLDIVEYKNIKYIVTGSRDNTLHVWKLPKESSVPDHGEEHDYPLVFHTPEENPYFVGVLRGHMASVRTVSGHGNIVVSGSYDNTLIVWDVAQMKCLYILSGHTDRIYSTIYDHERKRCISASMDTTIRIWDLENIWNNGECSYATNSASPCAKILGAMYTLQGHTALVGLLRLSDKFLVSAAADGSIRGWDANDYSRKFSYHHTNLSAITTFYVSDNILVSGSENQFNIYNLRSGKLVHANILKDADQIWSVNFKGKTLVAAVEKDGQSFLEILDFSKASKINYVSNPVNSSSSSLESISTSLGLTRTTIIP
Chain of Cdc4-Skp1 (Saccharomyces cerevisiae) (P52286 2-194, chain 2 of 2, further chain): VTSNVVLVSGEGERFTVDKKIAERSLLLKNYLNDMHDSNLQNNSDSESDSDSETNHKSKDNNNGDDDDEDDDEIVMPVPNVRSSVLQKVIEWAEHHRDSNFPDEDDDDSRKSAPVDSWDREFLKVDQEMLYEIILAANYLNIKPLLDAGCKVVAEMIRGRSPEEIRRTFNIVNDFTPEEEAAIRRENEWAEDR

[4] = molecular target: Cdc4 (Saccharomyces cerevisiae) (UniProt P07834); settings: cited from earlier work; remark: listed apart in the source
[5] = molecular target: Cdc4 (Saccharomyces cerevisiae) (UniProt P07834); settings: cited from earlier work; remark: listed apart in the source
[6] = molecular target: Cdc4 (Saccharomyces cerevisiae) (UniProt P07834); settings: cited from earlier work; remark: listed apart in the source
[7] = molecular target: Skp1-Cdc4 complex (Saccharomyces cerevisiae, UniProt P07834+P52286); test: Fluorescence polarization binding of fluorescein-labelled Ash1 peptides to Skp1-Cdc4; parameters: species or system yeast; settings: 10 nM fluorescein-labelled peptide, increasing recombinant Skp1-Cdc4 complex; 10 mM HEPES pH 7.5, 40 mM NaCl, 0.1 mg ml^−1 BSA, 1 mM DTT; ex 485 / em 535 nm; read-out: Kd (μM) from fluorescence polarization
Chain of Skp1-Cdc4 complex (P07834 whole entry): as the sequence (P07834 whole entry, chain 1 of 2) above
Chain of Skp1-Cdc4 complex (P52286 whole entry partner): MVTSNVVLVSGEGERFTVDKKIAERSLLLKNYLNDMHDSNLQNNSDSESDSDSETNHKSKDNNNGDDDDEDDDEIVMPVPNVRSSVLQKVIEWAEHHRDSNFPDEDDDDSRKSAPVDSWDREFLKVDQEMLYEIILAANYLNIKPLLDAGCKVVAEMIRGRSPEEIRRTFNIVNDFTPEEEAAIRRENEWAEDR
Source text: Figure 6 NMR titration of IM-labelled Cdc4^WD40 with Ash1 peptides. (a) Combined ^1H and ^13C chemical shifts of Cdc4^WD40 on binding of Ash1 peptides, with pT286 peptide in red, pT290 peptide in green, pS294 peptide in yellow, and the peptide phosphorylated on all three CPDs in blue. Assigned Ile and Met residues are labelled with residue number. Chemical shifts for the two bound states in titration with pT286 and triply phosphorylated peptides are reported on the same bars with stripes or without stripes. […] (f) Fluorescence polarization of the fluorescein-labelled Ash1 peptides (circle, pT286/pT290/pS294, square, pT286/pT290, triangle, pT290/pS294, inverted triangle doubly phosphorylated CycE peptide) in the presence of increasing concentrations of the recombinant Skp1-Cdc4 complex (mP, millipolarization unit). (g) Fluorescence polarization of the fluorescein-labelled Ash1 peptides (circle, pT286/pT290/pS294, square, pT286/pT290, triangle, pT290/pS294, inverted triangle, doubly phosphorylated CycE peptide) in the presence of increasing concentrations of the SCF-I2 inhibitor.
Fluorescence polarization assays containing 0.21 μM Skp1-Cdc4 complex and 10 nM fluorescently labelled cyclin E-derived or Ash1-derived phosphopeptides in 10 mM HEPES (pH 7.5), 40 mM NaCl, 0.1 mg ml^−1 BSA and 1 mM DTT in a final volume of 23.5 μl per well were performed on an Analyst HT plate reader (Molecular Devices Corp., Sunnyvale CA). Samples were excited at 485 nm and emission was read at 535 nm (ref. [26]).

[8] = molecular target: Cdc4 (Saccharomyces cerevisiae) (UniProt P07834); settings: cited from earlier work; remark: listed apart in the source
[9] = molecular target: Cdc4 (Saccharomyces cerevisiae) (UniProt P07834); settings: cited from earlier work; remark: listed apart in the source
[10] = molecular target: Cdc4 (Saccharomyces cerevisiae) (UniProt P07834); settings: cited from earlier work; remark: listed apart in the source
[11] = molecular target: fluorescein-labelled Ash1^18pT290/pS294 peptide (yeast); test: fluorescence polarisation; 10 nM fluorescein-labelled peptide with increasing concentrations of the recombinant Skp1-Cdc4 complex; 10 mM HEPES pH 7.5, 40 mM NaCl, 0.1 mg/ml BSA, 1 mM DTT
[12] = molecular target: fluorescein-labelled Ash1^18pT286/pT290 peptide (yeast); test: as above
[13] = molecular target: fluorescein-labelled Ash1^18pT286/pT290/pS294 peptide (yeast); test: as above
[14] = molecular target: T1, R664Q Cdc4^WD40 (yeast, UniProt P07834 367-744, R664Q); test: other fluorescence titration; intrinsic Trp fluorescence (excitation 298 nm, emission 366 nm); 0.5 μM Cdc4, ligand titrated; 50 mM Tris, 150 mM NaCl, 5 mM DTT, pH 7.5, 20 °C; 1:1 stoichiometry assumed; settings: both partners purified
T1 construct: Cdc4, yeast F-box protein, WD40 domain, residues 367-744, with Arg664Gln in the allosteric pocket; also called Arg664Gln Cdc4^WD40; mutant (Arg664Gln) Cdc4^WD40; source: E. coli, purified as the wild type (Ni-NTA, Ulp protease, Ni-NTA, Superdex 200)
T1 sequence (looked up): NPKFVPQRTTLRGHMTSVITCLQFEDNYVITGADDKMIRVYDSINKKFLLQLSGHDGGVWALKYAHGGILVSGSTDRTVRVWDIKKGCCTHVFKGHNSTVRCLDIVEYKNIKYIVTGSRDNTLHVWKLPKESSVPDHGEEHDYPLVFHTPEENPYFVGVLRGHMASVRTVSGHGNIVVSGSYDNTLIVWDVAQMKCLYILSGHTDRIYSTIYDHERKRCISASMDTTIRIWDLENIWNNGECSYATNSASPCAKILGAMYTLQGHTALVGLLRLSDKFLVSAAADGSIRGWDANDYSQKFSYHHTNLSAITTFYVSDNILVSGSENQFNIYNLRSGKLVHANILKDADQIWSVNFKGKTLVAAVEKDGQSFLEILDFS

[15] = molecular target: T2, Cdc4^WD40 (isolated WD40 domain of the yeast F-box protein Cdc4, residues 367-744), wild type (yeast, UniProt P07834 367-744); test: as above; settings: both partners purified
T2 construct: Cdc4, yeast F-box protein, WD40 domain, residues 367-744; For the NMR experiments the protein was U-[15N,2H], Ile-delta1-[13CH3], Met-epsilon-[13CH3] labelled (IM-labelled); also called wt Cdc4^WD40; Cdc4 WD40 domain; source: E. coli BL21(DE3) codonPlus, purified (Ni-NTA, Ulp protease, Ni-NTA, Superdex 200)
T2 sequence (looked up): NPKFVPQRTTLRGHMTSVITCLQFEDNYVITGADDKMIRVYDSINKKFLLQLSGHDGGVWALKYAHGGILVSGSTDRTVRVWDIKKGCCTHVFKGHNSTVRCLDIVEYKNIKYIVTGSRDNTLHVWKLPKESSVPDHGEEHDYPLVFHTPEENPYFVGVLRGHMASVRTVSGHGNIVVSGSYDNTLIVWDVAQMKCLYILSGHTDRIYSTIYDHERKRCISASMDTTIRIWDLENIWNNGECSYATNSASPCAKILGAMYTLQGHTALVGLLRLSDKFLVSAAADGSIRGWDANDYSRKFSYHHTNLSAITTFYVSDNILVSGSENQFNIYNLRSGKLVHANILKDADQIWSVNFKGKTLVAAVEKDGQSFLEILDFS

Chain of Cdc4 (Saccharomyces cerevisiae) (P07834 whole entry): as the sequence (P07834 whole entry, chain 1 of 2) above
Chain of Sic1 (P38634 whole entry): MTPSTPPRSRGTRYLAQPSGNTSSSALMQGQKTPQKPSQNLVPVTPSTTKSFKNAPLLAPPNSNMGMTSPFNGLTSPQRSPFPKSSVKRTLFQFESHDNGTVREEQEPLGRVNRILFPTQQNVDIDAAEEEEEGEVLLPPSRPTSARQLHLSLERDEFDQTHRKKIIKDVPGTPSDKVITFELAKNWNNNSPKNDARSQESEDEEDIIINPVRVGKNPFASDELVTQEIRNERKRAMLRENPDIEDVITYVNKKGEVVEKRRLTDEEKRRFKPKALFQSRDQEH
Chain of pSic1 (P38634 whole entry): as above
Chain of Ash1 pT286 peptide (P34233 whole entry): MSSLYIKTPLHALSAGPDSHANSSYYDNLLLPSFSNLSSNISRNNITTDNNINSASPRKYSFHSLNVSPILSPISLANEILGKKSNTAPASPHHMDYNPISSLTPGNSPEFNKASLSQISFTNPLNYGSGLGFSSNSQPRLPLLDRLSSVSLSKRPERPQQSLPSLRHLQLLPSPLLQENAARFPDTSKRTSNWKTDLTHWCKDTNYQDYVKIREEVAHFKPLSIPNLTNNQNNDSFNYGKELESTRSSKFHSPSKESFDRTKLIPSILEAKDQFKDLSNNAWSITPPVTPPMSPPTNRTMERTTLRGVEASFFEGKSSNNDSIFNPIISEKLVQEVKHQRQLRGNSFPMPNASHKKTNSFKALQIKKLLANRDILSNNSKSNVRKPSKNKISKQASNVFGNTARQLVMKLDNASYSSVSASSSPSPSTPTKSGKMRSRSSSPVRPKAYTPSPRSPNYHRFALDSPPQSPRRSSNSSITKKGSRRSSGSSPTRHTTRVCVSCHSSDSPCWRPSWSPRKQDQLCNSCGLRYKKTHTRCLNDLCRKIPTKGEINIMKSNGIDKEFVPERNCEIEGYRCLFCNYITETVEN
Chain of Ash1 pT290 peptide (P34233 whole entry): as above
Chain of Ash1 pS294 peptide (P34233 whole entry): as above
Chain of pSic1 1-90 (P38634 1-90): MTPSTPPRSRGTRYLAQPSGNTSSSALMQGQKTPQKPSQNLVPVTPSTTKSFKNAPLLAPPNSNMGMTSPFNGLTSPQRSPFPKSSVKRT

Molecule: Ash1 pThr290 phosphopeptide 283-299 (from UniProt P34233)
- Kd [1]: 4100 nM

Molecule: Sic1 (from UniProt P38634)
- Kd [2]: 1000 nM

Molecule: pSic1 1-90 (from UniProt P38634)
- Kd [3]: 600 nM

Molecule: Ash1 pS294 peptide (from UniProt P34233)
- Kd [4]: 6500 nM

Molecule: Ash1 pSer294 phosphopeptide 283-299 (from UniProt P34233)
- Kd [5]: 6500 nM

Molecule: Ash1 pT286 peptide (from UniProt P34233)
- Kd [6]: 900 nM

Molecule: CC[C@H](C)[C@H](NC(=O)[C@H](CO)NC(=O)[C@H](Cc1c[nH]c2ccccc12)NC(=O)[C@H](C)N)C(=O)N[C@H](C(=O)N1CCC[C@H]1C(=O)N1CCC[C@H]1C(=O)N[C@H](C(=O)N[C@H](C(=O)N1CCC[C@H]1C(=O)N1CCC[C@H]1C(=O)N[C@@H](CCSC)C(=O)N[C@@H](COP(=O)(O)O)C(=O)N1CCC[C@H]1C(=O)N1CCC[C@H]1C(=O)N[C@H](C(=O)N[C@@H](CC(N)=O)C(=O)N[C@@H](CCCNC(=N)N)C(=O)O)[C@@H](C)O)[C@@H](C)OP(=O)(O)O)C(C)C)[C@@H](C)OP(=O)(O)O [AWSIpTPPVpTPPMpSPPTNR] (H-AWSI[pT]PPV[pT]PPM[pS]PPTNR-OH)
- Kd [7]: 0.046 µM

Molecule: pSic1 (from UniProt P38634)
- Kd [3]: 600 nM

Molecule: CC[C@H](C)[C@H](NC(=O)[C@H](CO)NC(=O)[C@H](Cc1c[nH]c2ccccc12)NC(=O)[C@H](C)N)C(=O)N[C@H](C(=O)N1CCC[C@H]1C(=O)N1CCC[C@H]1C(=O)N[C@H](C(=O)N[C@H](C(=O)N1CCC[C@H]1C(=O)N1CCC[C@H]1C(=O)N[C@@H](CCSC)C(=O)N[C@@H](CO)C(=O)N1CCC[C@H]1C(=O)N1CCC[C@H]1C(=O)N[C@H](C(=O)N[C@@H](CC(N)=O)C(=O)N[C@@H](CCCNC(=N)N)C(=O)O)[C@@H](C)O)[C@@H](C)OP(=O)(O)O)C(C)C)[C@@H](C)OP(=O)(O)O [AWSIpTPPVpTPPMSPPTNR] (H-AWSI[pT]PPV[pT]PPMSPPTNR-OH)
- Kd [7]: 0.069 µM

Molecule: Ash1 pT290 peptide (from UniProt P34233)
- Kd [8]: 4100 nM

Molecule: Ash1 pThr286 phosphopeptide 283-299 (from UniProt P34233)
- Kd [9]: 900 nM

Molecule: Ash1 triphosphorylated peptide 283-299 (from UniProt P34233)
- Kd [10]: 70 nM

Molecule: recombinant Skp1-Cdc4 complex (from UniProt P07834 1-779; P52286 1-194)
- Kd [11]: 82 nM
- Kd [12]: 69 nM
- Kd [13]: 46 nM

Molecule: CC[C@H](C)[C@H](NC(=O)[C@H](CO)NC(=O)[C@H](Cc1c[nH]c2ccccc12)NC(=O)[C@H](C)N)C(=O)N[C@H](C(=O)N1CCC[C@H]1C(=O)N1CCC[C@H]1C(=O)N[C@H](C(=O)N[C@H](C(=O)N1CCC[C@H]1C(=O)N1CCC[C@H]1C(=O)N[C@@H](CCSC)C(=O)N[C@@H](COP(=O)(O)O)C(=O)N1CCC[C@H]1C(=O)N1CCC[C@H]1C(=O)N[C@H](C(=O)N[C@@H](CC(N)=O)C(=O)N[C@@H](CCCNC(=N)N)C(=O)O)[C@@H](C)O)[C@@H](C)OP(=O)(O)O)C(C)C)[C@@H](C)O [AWSITPPVpTPPMpSPPTNR] (H-AWSITPPV[pT]PPM[pS]PPTNR-OH)
- Kd [7]: 0.082 µM

Molecule: GMT[pS]PFNGLTSPQRSPFPKS [Sic1^20pS69 phosphopeptide]
- Ka [14]: 51400 M⁻¹
- Kd [14]: 19500 nM
- Ka [15]: 97600 M⁻¹
- Kd [15]: 10300 nM

Molecule: GMT[pS]PFNGLTSPQR[pS]PFPKS [Sic1^20pS69/pS80 phosphopeptide]
- Ka [14]: 267000 M⁻¹
- Kd [14]: 3740 nM
- Ka [15]: 142000 M⁻¹
- Kd [15]: 7060 nM

Molecule: GMTSPFNGLTSPQR[pS]PFPKS [Sic1^20pS80 phosphopeptide]
- Ka [14]: 104000 M⁻¹
- Kd [14]: 9580 nM
- Ka [15]: 110000 M⁻¹
- Kd [15]: 9130 nM

Source: paper PMC5216119, “An allosteric conduit facilitates dynamic multisite substrate recognition by the SCF^Cdc4 ubiquitin ligase” (Nature Communications, 2017)
